Laboratory results published in patent publication US20170320928A1 (WISCONSIN ALUMNI RESEARCH FOUNDATION, published 2017).
Where two headings read alike, the source gives them in different places. Square brackets hold non-standard residues; d marks the D form. Primed or numbered codes have the meaning given here. Ends that are not written are not given here. ACPC = cyclic β-residue replacing an α-residue; APC = 3-aminopyrrolidine-4-carboxylic acid; ACPC″ = not defined here; APC″ = not defined here; Aib = CC(C)(N)C(=O)O

Tests used:
Test in all cases: cell-based or functional assay
[1] = biological target: T1, human GLP-1 receptor (human, UniProt P43220 24-463)
[2] = biological target: T1, human GLP-1 receptor; remark: listed apart in the source
[3] = biological target: T1, human GLP-1 receptor; remark: listed apart in the source

What does the source list for HAEGTFT[ACPC″]DVS[ACPC″]YLE[ACPC″]QAA[ACPC″]EFI[ACPC″]WLV[APC″]GRG-NH2 (reading uncertain) [α/β-peptide SEQ. ID. NO: 6]?
EC50 nM, cAMP production in HEK293 cells [1]: > 100 nM; cAMP production, AVERAGES at M Concentrations: -7 [2]: 100; cAMP production, AVERAGES at M Concentrations: -8 [2]: 99.2; cAMP production, AVERAGES at M Concentrations: -9 [2]: 42.8; cAMP production, AVERAGES at M Concentrations: -10 [2]: 18; cAMP production, AVERAGES at M Concentrations: -12 [2]: 5.69; cAMP production, AVERAGES at M Concentrations: -13 [2]: 5.69

B1: SEQ. ID. NO: 13 (peptide)
peptide: HXEGTFTSDXSXYLEXQAAXEFIXWLVXGRG
modifications: C-terminal primary amide; non-natural residues are marked only by a key given as a drawing (CHEM-US-00002/00003), positions not readable in the text
With B1 as the binder, how does the “EC50 (nM), cAMP production” value [3] read?
The value was over 100 nM.

Which “EC50 nM, cAMP production in HEK293 cells” value [1] does the source give for H[Aib]EGTFTSD[Aib]S[ACPC]YLE[ACPC]QAA[ACPC]EFI[ACPC]WLV[APC]GRG-NH2 [α/β-Peptide SEQ. ID. NO: 7] here?
The value was 3.2 nM.

What about the “Max Response (% GLP-1 max), cAMP production” value [1] of the same binder?
Its value is 88 % GLP-1 max.

And the “EC50 (nM), cAMP production” value [2]?
Its value is 3.2 nM.

What about the “cAMP production, AVERAGES at M Concentrations: -7” value [2] of the same binder?
Its value is 88.3.

And the “cAMP production, AVERAGES at M Concentrations: -8” value [2]?
Its value is 63.

And the “cAMP production, AVERAGES at M Concentrations: -9” value [2]?
The value was 35.

And the “cAMP production, AVERAGES at M Concentrations: -10” value [2]?
Its value is 4.47.

And the “cAMP production, AVERAGES at M Concentrations: -11” value [2]?
Its value is 3.5.

And the “cAMP production, AVERAGES at M Concentrations: -12” value [2]?
Its value is 2.81.

What about the “cAMP production, AVERAGES at M Concentrations: -13” value [2] of the same binder?
The value was 3.83.
